For 44 molecules, binding score results are on record in article PMC5454392, “Selective BET bromodomain inhibition as an antifungal therapeutic strategy” (Nature Communications, 2017).

T1: CaBdf1 BD2 (GST-tagged, wild-type) (Candida albicans (strain SC5314 / ATCC …, UniProt Q5A4W8))
T1 chain: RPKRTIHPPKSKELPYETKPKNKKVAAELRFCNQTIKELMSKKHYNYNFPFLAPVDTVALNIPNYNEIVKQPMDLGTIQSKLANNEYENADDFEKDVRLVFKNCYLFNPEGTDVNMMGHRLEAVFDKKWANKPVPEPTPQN

T2: CaBdf1 BD1 (GST-tagged, wild-type) (Candida albicans (strain SC5314 / ATCC …, UniProt Q5A4W8))
T2 chain: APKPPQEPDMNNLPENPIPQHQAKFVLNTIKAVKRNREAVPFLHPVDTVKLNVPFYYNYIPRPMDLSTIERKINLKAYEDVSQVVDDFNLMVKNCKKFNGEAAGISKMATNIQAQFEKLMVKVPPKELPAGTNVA

Numbered stars: 1 amine (or outer) side, 2 acyl side, 3 side chain; on linkers, the order of the positions; unused ones are H or OH. Square brackets hold non-standard residues; d marks the D form. Ends that are not written are not given here. Arg(Me2a) = CN(C)C(=N)NCCC[C@H](N)C(=O)O; Kac = CC(=O)NCCCC[C@H](N[*:1])C(=O)[*:2]; Lys(Me3) = C[N+](C)(C)CCCC[C@H](N)C(=O)O; Arg(Me2s) = CN=C(NC)NCCC[C@H](N)C(=O)O; pT = C[C@@H](OP(=O)(O)O)[C@H](N)C(=O)O; Lys(Me2) = CN(C)CCCC[C@H](N)C(=O)O; pS = N[C@@H](COP(=O)(O)O)C(=O)O; Me2a = not defined here; me2a = not defined here

The target of one assay is T1, CaBdf1 BD2 (GST-tagged, wild-type). Nature of the assay: histone peptide array (Active Motif MODified), 1 uM GST-tagged bromodomain, anti-GST detection, normalized mean intensity.
AR(Me2a)[pT]K(Me2)QTARKSTGGKAPRKQ (reading uncertain) yielded a binding score of 0.
Molecule ARTKQTARKSTGGKAPRKQ (A Rme2s T Kme1 Q T A R Kme3 S T G G K A P R K Q) showed a binding score of 0.00259.
The molecule AR(Me2a)TK(Me2)QTARKSTGGKAPRKQ (reading uncertain) gave a binding score of 0.0037.
Consider AR(Me2a)TK(Me)QTAR(Me2s)K(Ac)STGGKAPRKQ (reading uncertain), for which the binding score worked out at 0.0037.
On the same count and under the same terms, with AR[pT]K(Me3)QTARKSTGGKAPRKQ the figure was 0.00296.
ARTKQTARKSTGGKAPRKQ (A R T Kme1 Q T A Rme2a Kme3 S T G G K A P R K Q) registered a binding score of 0.00333.
For PRKQLATKAAR(Me2s)K(Me3)SAPATGG, the binding score came out at 0.0037.
The same measure, in the same setting: then A[Arg(Me2a)]T[Lys(Me3)]QTA[Arg(Me2s)][Lys(Me2)]STGGKAPRKQ, with 0.00592; and ARTKQTARKSTGGKAPRKQ (A Rme2a T Kme3 Q T A R K S T G G K A P R K Q), with 0.00259; and PRKQLATKAARKSAPATGG (P R K Q L A T K A A Rme2a Kme2 S A P A T G G), with 0.00555.
With PDPAK(Ac)SAPAPKK(Ac)G[pS]KKAVT, the binding score amounted to 0.00481.
The same measure, in the same setting: then AR[pT]K(Ac)QTARKSTGGKAPRKQ, with 0.00333.
The molecule PDPAK(Ac)SAPAPKKGSK(Ac)KAVT returned a binding score of 0.00962.
Regarding ARTKQTARKSTGGKAPRKQ (A R T K Q T A R Kme3 S pT G G K A P R K Q), the binding score was 0.0037.
In turn, [pS]GRGK(Ac)QGGKARAK(Ac)AKSRSS gave a binding score of 0.0148.
The same measure, in the same setting: then ARTKQTARKSTGGKAPRKQ (A R T K Q T A Rme2s Kme2 pS T G G K A P R K Q), with 0.00333; and SGRGK(Ac)QGGKARAKAKSRSS, with 0.0074.
Same read-out and setting: then [pS]GRGKQGGKARAKAKSRSS, with 0.00592; and ARTK(Me)QTARKSTGGKAPRKQ, with 0.00185; and ARTK(Me)QTAR(me2a)K(Me)STGGKAPRKQ (reading uncertain), with 0.00407.
In turn, ARTKQTARKSTGGKAPRKQ (A R T K Q T A Rme2a Kme2 pS pT G G K A P R K Q) gave a binding score of 0.00555.
SGRGKGGKGLGKGGAKRHR (S G Rme2s G Kac G G Kac G L G K G G A K R H R) had a binding score of 0.0322.
For ARTKQTARKSTGGKAPRKQ (A Rme2a T Kme2 Q T A Rme2a Kme2 S T G G K A P R K Q), the binding score turned out to be 0.00555.
For the molecule SGRGKGGKGLGKGGAKRHR (S G R G K G G Kac G L G Kac G G A K R H R), the binding score was determined as 0.0418.
The molecule ARTKQTARKSTGGKAPRKQ (A Rme2a T Kme3 Q T A Rme2s Kme1 S T G G K A P R K Q) returned a binding score of 0.00407.
Still for that read-out and setting: with ART[Kac]QTA[Arg(Me2a)][Lys(Me2)]STGGKAPRKQ the figure was 0.00555.
ARTKQTARKSTGGKAPRKQ (A Rme2a T Kme1 Q T A Rme2s Kme3 S T G G K A P R K Q) returned a binding score of 0.00629.
Same read-out and setting: then ARTKQTARKSTGGKAPRKQ (A Rme2s T Kac Q T A Rme2s Kme1 S T G G K A P R K Q), with 0.00407; and AR[pT]K(Me)QTARKSTGGKAPRKQ, with 0.00296; and ARTKQTARKSTGGKAPRKQ (A Rme2s T Kme3 Q T A Rme2a Kme1 S T G G K A P R K Q), with 0.00222.
ARTKQTARKSTGGKAPRKQ (A Rme2a T Kme1 Q T A Rme2s Kme2 S T G G K A P R K Q): the binding score worked out at 0.00222.
Still for that read-out and setting: with RKSAPATGGVKKPHRYRPG (R K S A P A T G G V Kme2 K P H R Y R P G) [H3 26-45] the figure was 0.00555; with ARTKQTA[Arg(Me2a)]K(Me)[pS][pT]GGKAPRKQ, 0.0037; with ARTKQTARKSTGGKAPRKQ (A R T K Q T A R Kme3 S T G G K A P R K Q), 0.00222.
For A[Arg(Me2a)]TK(Ac)QTA[Arg(Me2s)][Lys(Me3)]STGGKAPRKQ, the binding score is 0.0122.
On the same count and under the same terms, then PDPAKSAPAPKKGSK(Ac)KAVT, with 0.00481; and SGRGKGGKGLGKGGAKRHR (pS G Rme2s G Kac G G Kac G L G K G G A K R H R), with 0.0352.
The same measure, in the same setting: with PRKQLATKAAR(Me2a)K(Me2)[pS]APATGG (reading uncertain) the figure was 0.00555; with SGRGKGGKGLGKGGAKRHR (pS G Rme2a G Kac G G K G L G K G G A K R H R), 0.00444.
With ARTKQTARKSTGGKAPRKQ (A R T Kme3 Q T A Rme2s Kme3 S T G G K A P R K Q), the binding score is 0.00407.
On the same count and under the same terms, then A[Arg(Me2s)]TK(Ac)QTARK(Me)STGGKAPRKQ, with 0.00333.
On the same count and under the same terms, then ARTKQTARKSTGGKAPRKQ (A R T K Q T A R Kme2 S T G G K A P R K Q), with 0.00296; and PDPAK(Ac)SAPAPKK(Ac)G[pS]K(Ac)KAVT, with 0.232; and PRKQLATKAA[Arg(Me2a)]KSAPATGG, with 0.00148.

The next assay addresses T2, CaBdf1 BD1 (GST-tagged, wild-type). The assay is described as above.
Consider AR(Me2a)[pT]K(Me2)QTARKSTGGKAPRKQ (reading uncertain), for which the binding score was 0.00181.
ARTKQTARKSTGGKAPRKQ (A Rme2s T Kme1 Q T A R Kme3 S T G G K A P R K Q) gave a binding score of 0.00326.
The same measure, in the same setting: with AR(Me2a)TK(Me2)QTARKSTGGKAPRKQ (reading uncertain) the figure was 0.00109; with AR(Me2a)TK(Me)QTAR(Me2s)K(Ac)STGGKAPRKQ (reading uncertain), 0.0341; with AR[pT]K(Me3)QTARKSTGGKAPRKQ, 0.00435.
With ARTKQTARKSTGGKAPRKQ (A R T Kme1 Q T A Rme2a Kme3 S T G G K A P R K Q), the binding score came out at 0.00254.
Still for that read-out and setting: then PRKQLATKAAR(Me2s)K(Me3)SAPATGG, with 0.00181; and A[Arg(Me2a)]T[Lys(Me3)]QTA[Arg(Me2s)][Lys(Me2)]STGGKAPRKQ, with 0.00326; and ARTKQTARKSTGGKAPRKQ (A Rme2a T Kme3 Q T A R K S T G G K A P R K Q), with 0.0109.
As for PRKQLATKAARKSAPATGG (P R K Q L A T K A A Rme2a Kme2 S A P A T G G), the binding score is 0.00363.
Consider PDPAK(Ac)SAPAPKK(Ac)G[pS]KKAVT, for which the binding score is 0.00979.
Still for that read-out and setting: then AR[pT]K(Ac)QTARKSTGGKAPRKQ, with 0.00725; and PDPAK(Ac)SAPAPKKGSK(Ac)KAVT, with 0.0323; and ARTKQTARKSTGGKAPRKQ (A R T K Q T A R Kme3 S pT G G K A P R K Q), with 0.00363.
Same read-out and setting: then [pS]GRGK(Ac)QGGKARAK(Ac)AKSRSS, with 0.0964.
The same measure, in the same setting: with ARTKQTARKSTGGKAPRKQ (A R T K Q T A Rme2s Kme2 pS T G G K A P R K Q) the figure was 0.00363.
In turn, SGRGK(Ac)QGGKARAKAKSRSS came in with a binding score of 0.021.
[pS]GRGKQGGKARAKAKSRSS: the binding score amounted to 0.0131.
The same measure, in the same setting: then ARTK(Me)QTARKSTGGKAPRKQ, with 0.000725; and ARTK(Me)QTAR(me2a)K(Me)STGGKAPRKQ (reading uncertain), with 0.00508.
The same measure, in the same setting: then ARTKQTARKSTGGKAPRKQ (A R T K Q T A Rme2a Kme2 pS pT G G K A P R K Q), with 0.00471.
On the same count and under the same terms, with SGRGKGGKGLGKGGAKRHR (S G Rme2s G Kac G G Kac G L G K G G A K R H R) the figure was 0.0334; with ARTKQTARKSTGGKAPRKQ (A Rme2a T Kme2 Q T A Rme2a Kme2 S T G G K A P R K Q), 0.00399; with SGRGKGGKGLGKGGAKRHR (S G R G K G G Kac G L G Kac G G A K R H R), 0.0707.
ARTKQTARKSTGGKAPRKQ (A Rme2a T Kme3 Q T A Rme2s Kme1 S T G G K A P R K Q) showed a binding score of 0.00326.
On the same count and under the same terms, with ART[Kac]QTA[Arg(Me2a)][Lys(Me2)]STGGKAPRKQ the figure was 0.00761.
Still for that read-out and setting: with ARTKQTARKSTGGKAPRKQ (A Rme2a T Kme1 Q T A Rme2s Kme3 S T G G K A P R K Q) the figure was 0.00471; with ARTKQTARKSTGGKAPRKQ (A Rme2s T Kac Q T A Rme2s Kme1 S T G G K A P R K Q), 0.00653; with AR[pT]K(Me)QTARKSTGGKAPRKQ, 0.00471.
The molecule ARTKQTARKSTGGKAPRKQ (A Rme2s T Kme3 Q T A Rme2a Kme1 S T G G K A P R K Q) returned a binding score of 0.0272.
Molecule ARTKQTARKSTGGKAPRKQ (A Rme2a T Kme1 Q T A Rme2s Kme2 S T G G K A P R K Q) came in with a binding score of 0.00218.
For the molecule RKSAPATGGVKKPHRYRPG (R K S A P A T G G V Kme2 K P H R Y R P G) [H3 26-45], the binding score is 0.0058.
On the same count and under the same terms, with ARTKQTA[Arg(Me2a)]K(Me)[pS][pT]GGKAPRKQ the figure was 0.00471; with ARTKQTARKSTGGKAPRKQ (A R T K Q T A R Kme3 S T G G K A P R K Q), 0.0029.
Regarding A[Arg(Me2a)]TK(Ac)QTA[Arg(Me2s)][Lys(Me3)]STGGKAPRKQ, the binding score was found to be 0.00653.
As for PDPAKSAPAPKKGSK(Ac)KAVT, the binding score stood at 0.0199.
For SGRGKGGKGLGKGGAKRHR (pS G Rme2s G Kac G G Kac G L G K G G A K R H R), the binding score amounted to 0.054.
As to PRKQLATKAAR(Me2a)K(Me2)[pS]APATGG (reading uncertain), the binding score came to 0.00145.
On the same count and under the same terms, then SGRGKGGKGLGKGGAKRHR (pS G Rme2a G Kac G G K G L G K G G A K R H R), with 0.0105.
Molecule ARTKQTARKSTGGKAPRKQ (A R T Kme3 Q T A Rme2s Kme3 S T G G K A P R K Q) registered a binding score of 0.00399.
In turn, A[Arg(Me2s)]TK(Ac)QTARK(Me)STGGKAPRKQ came in with a binding score of 0.00798.
On the same count and under the same terms, then ARTKQTARKSTGGKAPRKQ (A R T K Q T A R Kme2 S T G G K A P R K Q), with 0.00109; and PDPAK(Ac)SAPAPKK(Ac)G[pS]K(Ac)KAVT, with 0.0982.
The same measure, in the same setting: then PRKQLATKAA[Arg(Me2a)]KSAPATGG, with 0.00326.
